Tests used:
[1] = target: T1, C-terminally HA-tagged mouse ITM2A expressed on CHO cells (mITM2A_CHO) (mouse, UniProt Q61500 1-263); experiment: flow cytometry on mITM2A_CHO cells
T1 construct: also called mITM2A-HA; mouse ITM2A-expressing CHO cells

[2] = target: T2, ITM2A-furin (Met1 to Leu227 of ITM2A with an HA tag added downstream) expressed on CHO cells (ITM2A-furin_CHO) (human, UniProt O43736 1-227); experiment: flow cytometry on ITM2A-furin_CHO cells
T2 construct: C-terminally truncated ITM2A on DG44 CHO cells; also called ITM2A-furin-HA; ITM2A-furin-expressing CHO cells
Procedure: (§1) Each anti-ITM2A monoclonal antibody prepared in Example 2 was assayed for its binding to ITM2A-furin by flow cytometry (FACS). The cells used were ITM2A-furin_CHO prepared in the paragraph (4-1), ITM2A_CHO prepared in the paragraph (2-4), and host cells CHO. These cells were separately suspended in PBS supplemented with 0.2% bovine serum albumin and 0.1% NaN3 (FACS buffer). To each cell suspension, the antibody BE5-1, BE6-1, BE7-1-1, or BE13-1, mouse IgG1, or an anti-HA antibody (clone HA-7, mouse IgG1, Sigma-Aldrich Corp.) was added, and the resulting cell suspension was incubated for 1 hour on ice. Each antibody was diluted into 6 dilutions at a common ratio of 5 from a concentration of 10 μg/mL. After washing of the cells with a FACS buffer, an FITC-labeled anti-mouse IgG antibody (Goat F(ab′)2 Fragment Anti-mouse IgG (Fcγ)-FITC, Beckman Coulter, Inc.) was added thereto as a secondary antibody. The resulting cell suspension was incubated for 1 hour on ice. The cells were washed with a FACS buffer, then suspended in a FACS buffer supplemented with 10 μg/mL propidium iodide (PI, Sigma-Aldrich Corp.), and subjected to assay using a flow cytometer. The assay data was analyzed using CELLQuest software (Becton, Dickinson and Company) to evaluate a PI-negative live cell population.

[3] = target: T3, C-terminally HA-tagged ITM2A expressed on CHO cells (ITM2A_CHO) (human, UniProt O43736 1-263); experiment: flow cytometry screening of hybridoma supernatants on ITM2A_CHO against parent CHO cells
T3 construct: Type II membrane protein on DG44 CHO cells; also called ITM2A-HA; ITM2A-expressing CHO cells

[4] = target: T4, GST-ITM2A-S (GST fusion of ITM2A Tyr75-Lys182, C-terminally His-tagged) (human); experiment: ELISA, coated GST-ITM2A-S
T4 construct: Expressed in E. coli, solubilized and purified in 8 M urea buffer, coated on the ELISA plate
Procedure: (§2) Each anti-ITM2A monoclonal antibody prepared in Example 2 was evaluated for its binding to GST-ITM2A-L and GST-ITM2A-S by ELISA. First, 100 μL each of GST-ITM2A-L and GST-ITM2A-S solutions having a concentration of 3 μg/mL was added to each well of a 96-well plate for ELISA (Nunc-Immuno Plate, Thermo Fisher Scientific K.K.) to coat the well with GST-ITM2A-L or GST-ITM2A-S. The coated well was blocked with a buffer containing 1% bovine serum albumin. Then, 100 μL each of solutions of the antibodies BE5-1, BE6-1, BE7-1-1, and BE13-1 diluted with the same buffer as above was added to each well. The plate was incubated at room temperature for 1 hour. The positive control used was an anti-His antibody (mouse IgG1, Santa Cruz Biotechnology, Inc.). The negative control used was mouse IgG1 (BD Pharmingen). Each antibody was diluted into 8 dilutions at a common ratio of 3.16 from a concentration of 1 μg/mL. After reaction with a secondary antibody (alkaline phosphatase-goat anti-mouse IgG (Gamma), Invitrogen Corp.), a substrate (phosphatase substrate, Sigma-Aldrich Corp.) was added to each well. Color developed by the reaction solution in each well was determined by the measurement of absorbance at 405 nm to 655 nm.

[5] = target: T5, GST-ITM2A-L (GST fusion of the ITM2A extracellular region Tyr75-Glu263, C-terminally His-tagged) (human); experiment: ELISA, coated GST-ITM2A-L
T5 construct: Expressed in E. coli, solubilized and purified in 8 M urea buffer, coated on the ELISA plate
Procedure: as §2

[6] = target: T3, C-terminally HA-tagged ITM2A expressed …; experiment: flow cytometry on ITM2A_CHO cells
Procedure: as §1

[7] = target: T6, human ITM2A protein (endogenous, on human cancer cell lines) (human, UniProt O43736 1-263); experiment: flow cytometry on human cancer cell lines, BE6-1 at 10 µg/mL, mouse IgG1 as negative control
T6 construct: also called NP-004858.1
Procedure: as §1
The expression of ITM2A was assayed in human cancer cell lines by FACS. […]

T3 sequence (O43736 other isoform, or with tags, fused parts or gaps): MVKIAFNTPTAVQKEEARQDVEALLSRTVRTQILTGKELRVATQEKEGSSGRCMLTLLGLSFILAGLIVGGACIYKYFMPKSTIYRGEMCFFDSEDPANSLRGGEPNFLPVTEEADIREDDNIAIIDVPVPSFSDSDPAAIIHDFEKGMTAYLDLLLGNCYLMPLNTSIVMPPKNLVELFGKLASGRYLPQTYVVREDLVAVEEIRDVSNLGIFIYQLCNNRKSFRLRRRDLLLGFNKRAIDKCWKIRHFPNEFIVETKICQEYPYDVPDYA
T1 sequence (Q61500 other isoform, or with tags, fused parts or gaps): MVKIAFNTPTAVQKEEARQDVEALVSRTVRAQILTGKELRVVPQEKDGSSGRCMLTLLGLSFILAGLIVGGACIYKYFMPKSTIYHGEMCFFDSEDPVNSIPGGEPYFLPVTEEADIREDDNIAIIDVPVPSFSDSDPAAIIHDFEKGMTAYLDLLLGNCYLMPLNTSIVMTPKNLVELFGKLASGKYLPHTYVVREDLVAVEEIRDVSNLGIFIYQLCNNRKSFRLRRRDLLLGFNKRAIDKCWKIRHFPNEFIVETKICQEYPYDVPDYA
T5 sequence (chain, as listed by the source limits assumed): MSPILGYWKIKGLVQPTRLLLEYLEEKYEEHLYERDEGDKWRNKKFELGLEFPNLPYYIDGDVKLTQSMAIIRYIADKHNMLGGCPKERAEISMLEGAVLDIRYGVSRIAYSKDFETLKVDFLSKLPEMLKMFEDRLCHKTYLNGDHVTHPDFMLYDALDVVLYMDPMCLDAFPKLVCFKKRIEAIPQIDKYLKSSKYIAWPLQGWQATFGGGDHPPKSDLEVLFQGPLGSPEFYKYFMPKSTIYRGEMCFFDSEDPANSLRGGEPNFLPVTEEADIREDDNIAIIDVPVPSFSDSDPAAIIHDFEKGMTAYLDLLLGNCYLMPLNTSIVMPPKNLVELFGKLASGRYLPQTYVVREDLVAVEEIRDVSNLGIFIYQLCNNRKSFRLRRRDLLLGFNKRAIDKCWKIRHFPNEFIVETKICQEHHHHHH
T4 sequence (chain, as listed by the source limits assumed): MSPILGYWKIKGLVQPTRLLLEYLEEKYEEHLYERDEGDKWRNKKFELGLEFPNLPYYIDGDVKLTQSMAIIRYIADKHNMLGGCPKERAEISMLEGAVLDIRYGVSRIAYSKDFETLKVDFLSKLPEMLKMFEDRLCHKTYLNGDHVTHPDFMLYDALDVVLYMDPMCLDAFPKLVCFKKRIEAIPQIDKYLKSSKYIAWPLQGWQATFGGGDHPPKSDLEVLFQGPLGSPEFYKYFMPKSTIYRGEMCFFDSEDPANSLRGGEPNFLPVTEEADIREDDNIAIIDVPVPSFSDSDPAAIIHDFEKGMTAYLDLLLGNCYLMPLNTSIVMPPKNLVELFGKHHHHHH
T2 sequence (O43736 other isoform, or with tags, fused parts or gaps limits assumed): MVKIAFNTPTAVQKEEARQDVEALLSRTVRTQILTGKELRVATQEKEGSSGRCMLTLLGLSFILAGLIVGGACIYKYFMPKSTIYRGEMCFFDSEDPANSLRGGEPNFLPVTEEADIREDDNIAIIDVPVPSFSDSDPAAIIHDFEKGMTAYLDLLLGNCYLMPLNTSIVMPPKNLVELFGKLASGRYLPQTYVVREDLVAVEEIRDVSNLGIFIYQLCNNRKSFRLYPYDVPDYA
T6 sequence (O43736 whole entry): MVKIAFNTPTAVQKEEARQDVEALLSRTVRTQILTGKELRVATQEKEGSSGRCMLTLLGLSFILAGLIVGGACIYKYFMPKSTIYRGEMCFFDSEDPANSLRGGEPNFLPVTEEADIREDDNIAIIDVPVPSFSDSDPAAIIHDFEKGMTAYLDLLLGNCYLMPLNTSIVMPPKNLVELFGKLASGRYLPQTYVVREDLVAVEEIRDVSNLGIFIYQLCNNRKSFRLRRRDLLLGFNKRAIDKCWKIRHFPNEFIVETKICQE

Binder | binding result [1] | binding result [2] | binding result [3] | binding result [4] | binding result [5] | binding result [6] | binding result [7]
anti-ITM2A monoclonal antibody BE5-1 (antibody, mouse IgG1, V domains shown) VH: QVQLVETGGGLVRPGNSLKLSCVTSGFTFSDYRMHWLRQSPGKRLEWIAVITGKSDNYGASYAESVKGRFTISRDDSKSSVYLQMNRLREEDTATYYCSRRDYWGQGTSVTVSS VL: DIVMTQAAPSVPVTPGESVSISCRSSKSLLHSNGNTYLYWFLQRPGQSPQLLIYRMSNLAPGVPDRFSGSGSGTAFTLRISRVEAEDVGVYYCMQHLEYPFTFGAGTKLELK | binds | binds | binds | binds | binds | – | –
anti-ITM2A monoclonal antibody BE13-1 (antibody, mouse IgG1, V domains shown) VH: EVQLQQSGPELVKPGASVRMSCKASGYTFTDYYMKWVKQSHGKSLEWIGDINPNNGGLSYNQKFKGKATLTVDKSSSTAYMQLASLTSEDSAVYYCAIWSGAYWGQGTLVTVSA VL: not shown | binds | – | – | – | binds | binds | –
anti-ITM2A monoclonal antibody BE6-1 (antibody, mouse IgG1, V domains shown) VH: EVQLQQSGPELVKPGASVKISCKTSGYTFTEYTMHWVKQSHGKSLEWIGGINPNNGDTSYNQKFKGKATLTVDKSSITAYMELRSLTSEDSAVYYCARGPFAYWGQGTLVTVST VL: DVVMTQTPLSLPVSLGDQASISCRSSQSLVHSNGNTYFHWYLQKPGQSPKFLIYKVSNRFFGVPDRFSGSGSGTDFTLKISRVEAEDLGVYFCSQTTHFPFTFGSGTKLEIK | no binding | binds | – | binds | binds | binds | binds
